According to ChEMBL document CHEMBL1123179, “4-Amino-2-(substituted methyl)-2-butenoic acids: substrates and potent inhibitors of gamma-aminobutyric acid aminotransferase” (J Med Chem, 1986):

What was measured:
Settings in all cases: Sus scrofa
[1] = test system: NC/C=C(\CF)C(=O)O; test: (§1) Compound was tested for the inhibitory effect against Gamma-amino-N-butyrate transaminase from pig brain, activity expressed as Km
[2] = test system: NC/C=C(\CO)C(=O)O; test: as §1
[3] = test system: NC/C=C(\CO)C(=O)O; test: Compound was tested for the inhibitory effect against Gamma-amino-N-butyrate transaminase from pig brain, activity expressed as Vmax

Sequence of 4-aminobutyrate aminotransferase, mitochondrial (Sus scrofa), P80147 (P80147 whole entry): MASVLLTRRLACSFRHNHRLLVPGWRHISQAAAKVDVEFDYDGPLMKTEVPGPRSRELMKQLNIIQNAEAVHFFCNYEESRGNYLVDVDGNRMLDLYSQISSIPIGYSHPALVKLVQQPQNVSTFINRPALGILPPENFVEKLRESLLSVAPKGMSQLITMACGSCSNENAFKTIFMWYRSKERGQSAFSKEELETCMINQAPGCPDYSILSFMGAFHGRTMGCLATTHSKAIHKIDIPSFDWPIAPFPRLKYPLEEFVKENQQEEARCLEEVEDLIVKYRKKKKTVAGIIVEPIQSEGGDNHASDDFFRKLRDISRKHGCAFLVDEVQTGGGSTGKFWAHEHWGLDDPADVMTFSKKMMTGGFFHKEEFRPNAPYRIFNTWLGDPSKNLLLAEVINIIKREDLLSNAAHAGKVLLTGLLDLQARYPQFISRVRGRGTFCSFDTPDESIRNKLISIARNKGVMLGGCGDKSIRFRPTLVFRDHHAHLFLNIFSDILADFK

Question: What does the source list for “4-aminobutyrate aminotransferase, mitochondrial (Sus scrofa), P80147”?
Answer: Km [1]: 140 µM; Km [2]: 10 µM; Vmax [3]: 0.012 µM/min/mg
